Results from patent US20080026996A1, “Selective Vpac2 Receptor Reptide Agonists” (ELI LILLY AND COMPANY, priority 2004, published 2008).
Where no end group is shown, it is not given here. The star is where a group is joined. Hexanoyl = CCCCCC(=O)*

T1: human VPAC2 receptor (human, UniProt P41587 24-438)
T1 sequence (looked up): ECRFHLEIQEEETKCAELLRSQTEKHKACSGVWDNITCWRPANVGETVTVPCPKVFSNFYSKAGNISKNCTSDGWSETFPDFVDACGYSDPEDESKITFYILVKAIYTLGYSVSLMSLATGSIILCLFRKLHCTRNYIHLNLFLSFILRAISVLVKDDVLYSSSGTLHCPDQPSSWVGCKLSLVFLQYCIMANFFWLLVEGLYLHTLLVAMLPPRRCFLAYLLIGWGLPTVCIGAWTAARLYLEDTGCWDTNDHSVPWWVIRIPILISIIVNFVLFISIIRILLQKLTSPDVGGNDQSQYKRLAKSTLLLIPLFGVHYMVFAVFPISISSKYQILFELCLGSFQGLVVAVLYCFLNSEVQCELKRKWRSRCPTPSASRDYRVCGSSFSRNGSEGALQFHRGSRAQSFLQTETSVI


Molecular target: T1, human VPAC2 receptor
Assay: cell-based or functional assay

Binder	EC50 cAMP, Alpha Screen [nM]
Hexanoyl-HSDAVFTDNYTRLRKQVAAVKYLQSIKNKRYGGPSSGAPPPS [P146]	0.17
Hexanoyl-HSDAVFTDNYTRLRKQVAAYKYLQSIKNKRYGGPSSGAPPPS [P147]	0.13
Hexanoyl-HSDAVFTDNYTRLRKQVAAFKYLQSIKNKRYGGPSSGAPPPS [P148]	0.1
Hexanoyl-HSDAVFTDNYTRLRKQVAAIKYLQSIKNKRYGGPSSGAPPPS [P149]	0.41
Hexanoyl-HSDAVFTDNYTRLRKQVAALKYLQSIKNKRYGGPSSGAPPPS [P151]	0.07
Hexanoyl-HSDAVFTDNYTRLRKQVAATKYLQSIKNKRYGGPSSGAPPPS [P152]	0.17
Hexanoyl-HSDAVFTDNYTRLRKQVAAWKYLQSIKNKRYGGPSSGAPPPS [P153]	0.11
Hexanoyl-HSDAVFTDNYTRLRKQVALKKYLQSIKNKRYGGPSSGAPPPS [P155]	0.24
Hexanoyl-HSDAVFTANYTRLRKQVAAKKYLQSIKNKRYGGPSSGAPPPS [P158]	0.11
Hexanoyl-HSDAVFTENYTRLRKQVAAKKYLQSIKNKRYGGPSSGAPPPS [P159]	0.17
Hexanoyl-HSDAVFTKNYTRLRKQVAAKKYLQSIKNKRYGGPSSGAPPPS [P160]	13.2
Hexanoyl-HSDAVFTLNYTRLRKQVAAKKYLQSIKNKRYGGPSSGAPPPS [P161]	4
Hexanoyl-HSDAVFTRNYTRLRKQVAAKKYLQSIKNKRYGGPSSGAPPPS [P162]	11.1
Hexanoyl-HSDAVFTYNYTRLRKQVAAKKYLQSIKNKRYGGPSSGAPPPS [P163]	5.53
Hexanoyl-HSDAVFTDNYTRLLAKLALQKYLQSIKNKRYGGPSSGAPPPC [P164]	0.11
Hexanoyl-HSDAVFTEEYTRLQKQVAAKQYLQSIKNKRYGGPSSGAPPPS [P165]	0.94
Hexanoyl-HSDAVFTDNYTRLKKQVAAKKYLQSIKNKRYGGPSSGAPPPS [P171]	0.82
Hexanoyl-HSDAVFTDNYTRLAKQVAAKKYLQSIKNKRYGGPSSGAPPPS [P173]	0.25
Hexanoyl-HSDAVFTDNYTRLLKQVAAKKYLQSIKNKRYGGPSSGAPPPS [P174]	0.26

Binder	EC50 cAMP, Alpha Screen [nM]
Hexanoyl-HSDAVFTDNYTRLFKQVAAKKYLQSIKNKRYGGPSSGAPPPS [P175]	0.68
Hexanoyl-HSDAVFTDNYTRLRRQVAAKKYLQSIKNKRYGGPSSGAPPPS [P176]	0.28
Hexanoyl-HSDAVFTDNYTRLRLQVAAKKYLQSIKNKRYGGPSSGAPPPS [P179]	0.24
Hexanoyl-HSDAVFTDNYTRLRFQVAAKKYLQSIKNKRYGGPSSGAPPPS [P180]	1.04
Hexanoyl-HSDAVFTDNYTRLRKQVAAAKYLQSIKNKRYGGPSSGAPPPS [P181]	0.13
Hexanoyl-HSDAVFTDNYTRLRKQVAAKRYLQSIKNKRYGGPSSGAPPPS [P182]	0.29
Hexanoyl-HSDAVFTDNYTRLRKQVAAKQYLQSIKNKRYGGPSSGAPPPS [P183]	0.14
Hexanoyl-HSDAVFTDNYTRLRKQVAAKAYLQSIKNKRYGGPSSGAPPPS [P184]	0.22
Hexanoyl-HSDAVFTDNYTRLRKQVAAKLYLQSIKNKRYGGPSSGAPPPS [P185]	0.18
Hexanoyl-HSDAVFTDNYTRLRKQVAAKFYLQSIKNKRYGGPSSGAPPPS [P186]	0.15
Hexanoyl-HSDAVFTDQYTRLLAKLALQKYLQSIKQKRYGGPSSGAPPPS [P192]	0.18
Hexanoyl-HSDAVFTDNYTRLLAQLALQKYLQSIKNKRYGGPSSGAPPPS [P195]	0.25
Hexanoyl-HSDAVFTDNYTRLLAKVALQKYLQSIKNKRYGGPSSGAPPPS [P196]	0.23
Hexanoyl-HSDAVFTDNYTRLLAKLAAQKYLQSIKNKRYGGPSSGAPPPS [P197]	0.09
Hexanoyl-HSDAVFTDNYTRLRKQVAAKKYLQSIKNKRFGGPSSGAPPPS [P203]	0.14
Hexanoyl-HSEAVFTDNYTRLRKQVAAKKYLQSIKNKRYGGPSSGAPPPS [P224]	0.14
Hexanoyl-HSDAVFTDNYTRLRKQVAAKKYWQSIKNKRYGGPSSGAPPPS [P230]	0.3
Hexanoyl-HSDAVFTDNYTRLRKQVAAKKYFQSIKNKRYGGPSSGAPPPS [P231]	0.26
